Results on one substance are retold here after patent US20150125849A1.

Assay [1] concerns the target GFP with His-tag at the C-extreme (pETsa-GFP-his) [GFP: P42212]. Nature of the assay: detection of diluted antigen with 5 µg purified IgG (data not shown).
The target of assay [2] is GFP with His-tag at the N-extreme (pETsa-his-GFP) [GFP: P42212]. The description is as above.

For “His-tag MAb (Invitrogen, Carlsbad, USA) (antibody)”, the antigen dilution at which detected in assay [1] and in assay [2] was 32 × dilution in each case.
